B1: Inositol phosphate phosphatase SopB (Salmonella typhimurium), O30916 (parent)
chain: MQIQSFYHSASLKTQEAFKSLQKTLYNGMQILSGQGKAPAKAPDARPEIIVLREPGATWGNYLQHQKASNHSLHNLYNLQRDLLTVAATVLGKQDPVLTSMANQMELAKVKADRPATKQEEAAAKALKKNLIELIAARTQQQDGLPAKEAHRFAAVAFRDAQVKQLNNQPWQTIKNTLTHNGHHYTNTQLPAAEMKIGAKDIFPSAYEGKGVCSWDTKNIHHANNLWMSTVSVHEDGKDKTLFCGIRHGVLSPYHEKDPLLRHVGAENKAKEVLTAALFSKPELLNKALAGEAVSLKLVSVGLLTASNIFGKEGTMVEDQMRAWQSLTQPGKMIHLKIRNKDGDLQTVKIKPDVAAFNVGVNELALKLGFGLKASDSYNAEALHQLLGNDLRPEARPGGWVGEWLAQYPDNYEVVNTLARQIKDIWKNNQHHKDGGEPYKLAQRLAMLAHEIDAVPAWNCKSGKDRTGMMDSEIKREIISLHQTHMLSAPGSLPDSGGQKIFQKVLLNSGNLEIQKQNTGGAGNKVMKNLSPEVLNLSYQKRVGDENIWQSVKGISSLITS

Nine variants from IntAct's records for PubMed 21435037 can be followed below.

One assay covers variants of B1. The following applies: with cdc42_human CDC42, P60953.
Chain of cdc42_human CDC42, P60953 (P60953 whole entry, looked up): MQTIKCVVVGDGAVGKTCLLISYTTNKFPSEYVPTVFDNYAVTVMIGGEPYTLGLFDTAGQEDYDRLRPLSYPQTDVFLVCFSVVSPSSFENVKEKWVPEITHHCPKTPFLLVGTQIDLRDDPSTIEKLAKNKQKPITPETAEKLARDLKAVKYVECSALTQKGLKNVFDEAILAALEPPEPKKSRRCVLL
L63P;R466A: the “effect of a mutation on the interaction” value is recorded as “decreasing interaction”.
On the same count and under the same terms, with L52P the entry was “decreasing interaction”; with L76P;R466A, “decreasing interaction”.
Still for that read-out and setting: with L84P;R466A the entry was “decreasing interaction”.
As to L73P;R466A, the “effect of a mutation on the interaction” value is on record as “decreasing interaction”.

In another assay the parent is B1. The following applies: with cdc42_human CDC42, P60953. This is another data set of the same source.
L84P: the “effect of a mutation on the interaction” value was “decreasing interaction”.
On the same count and under the same terms, with L76P the entry was “decreasing interaction”; with L63P, “decreasing interaction”.
On to L73P, for which the “effect of a mutation on the interaction” value is recorded as “decreasing interaction”.
